In patent publication US9688764B2, “Methods of treating breast cancer by administering anti-human prolactin receptor (PRLR) antibodies” (REGENERON PHARMACEUTICALS, INC., priority 2013, dated 2017):

T1: HEK293/hPRLR (Homo sapiens, UniProt P16471)
T1 construct: HA; expressed in transfected cells; host or cells: HEK293
T1 sequence (P16471 25-622): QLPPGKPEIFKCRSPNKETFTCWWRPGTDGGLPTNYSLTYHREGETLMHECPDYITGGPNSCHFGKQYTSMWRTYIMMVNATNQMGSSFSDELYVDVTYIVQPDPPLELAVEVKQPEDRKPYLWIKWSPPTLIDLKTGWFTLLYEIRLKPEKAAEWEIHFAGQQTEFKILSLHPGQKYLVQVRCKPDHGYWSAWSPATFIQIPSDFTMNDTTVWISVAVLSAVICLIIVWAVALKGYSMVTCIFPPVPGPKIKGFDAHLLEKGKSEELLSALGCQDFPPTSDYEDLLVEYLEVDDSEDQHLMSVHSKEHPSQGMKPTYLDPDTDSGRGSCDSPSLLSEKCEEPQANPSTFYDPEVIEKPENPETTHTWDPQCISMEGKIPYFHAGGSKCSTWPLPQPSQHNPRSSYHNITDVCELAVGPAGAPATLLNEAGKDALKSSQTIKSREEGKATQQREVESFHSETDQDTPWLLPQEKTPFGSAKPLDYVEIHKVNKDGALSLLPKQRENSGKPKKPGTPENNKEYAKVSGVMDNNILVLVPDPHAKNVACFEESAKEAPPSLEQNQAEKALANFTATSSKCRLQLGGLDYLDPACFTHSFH

T2: PRLR-expressing cells (T47D) (Homo sapiens, UniProt P16471)
T2 construct: a native PRLR expressing cell line (T47D); endogenous in cells; host or cells: T47D
T2 sequence (P16471 25-622): T1 sequence (P16471 25-622)

B1: H1H6975N: human IgG1 Fc form of H2M6975N; anti-PRLR; HCVR/LCVR SEQ ID NOs 370/378 (antibody, V domains shown)
VH: EVHLVESGGGLVQPGGSLRLSCAASGFTFSSYEMNWVRQTPGKGLEWISHISSRSVIIYYADSVKGRFTISRDNAKNSLFLQMNSLRAEDTAVYFCAGITIFGIPEYWGQGTLVTVSS
VL: EIVLTQSPATLSLSPGERATLSCRASQSVSSYFAWYQQKPGQAPRLLIYDASSRATGIPTRFSGSGSGTDFTLTISSLEPEDFAVYYCQQRSSWPITFGQGTRLEIK
modifications: human IgG1 Fc
B2: H1H6976N: human IgG1 Fc form of H2M6976N; anti-PRLR; HCVR/LCVR SEQ ID NOs 386/394 (antibody, V domains shown)
VH: EVQLLESGGGFVQPGGSLRLSCAASGFTFSSYAMSWVRQAPGKGLEWVSIISSNGRYTYYADSVKGRFTISRDNSKNTLYLQMNSLRAEDTAVYYCATVTGDWFDPWGQGTLVTVSS
VL: DIQLTQSPSFLSASVGDRVTITCWASQDIDISLAWYQQKPGKAPKLLIYAASTLQSGVPSKFSGSGSGTDFTLTISSLQPEDFSTYYCQQLNSYPITFGQGTRLDIK
modifications: human IgG1 Fc
B3: H1H6762P: anti-PRLR antibody, human IgG1 Fc; HCVR/LCVR SEQ ID NOs 2/10 (antibody, V domains shown)
VH: QVQLVESGGGVVQPGRSLRLSCAASGFTFSHYGMVWVRQPPGKGLEWVALISFDGTTKYYADSVKGRFTISRDNSKNTLYLQMNSLRAEDTAVYFCVGAIAAAAFDLWGRGTLVTVSS
VL: EIVMTQSPATLSVSPGERATLSCRASQSVSSDLAWYQQKPGQAPRLLIYSASARATGIPARFTGSGSGTDFTLTISSLQSEDFAVYYCQQYNNWPMYTFGQGTKLEIK
modifications: human IgG1 Fc

Test system: HEK293 (non-expressing parental cells)
Test: FACS cell surface binding
Settings: not given
Experimental: (§1) The ability of anti-PRLR antibodies to selectively bind PRLR expressing cell lines was next determined. Human, monkey macaca fascicularis, and mouse PRLR constructs with an HA tag were stably introduced into HEK293 cells via Lipofectamine 2000-mediated transfection methodology. Transfectants (HEK293/hPRLR, HEK293/mfPRLR and HEK293/mPRLR) were selected for at least 2 weeks in complete growth media plus G418.
(§2) Cell surface expression of PRLR on 293/hPRLR cells was assessed via FACS analysis. Briefly, 1×10^5 cells were incubated with 10 μg/ml of Control antibody I, or an isotype control for 30 min on ice in antibody dilution buffer. Following two washes with antibody dilution buffer, cells were incubated with 10 μg/ml of PE conjugated anti-human secondary antibodies for 30 min on ice. Following two additional washes, samples were run on a Hypercyt® cytometer and analyzed in FORECYT™ (IntelliCyt, Albuquerque, N. Mex.). The mean fluorescence intensities (MFI) were expressed as fold change above isotype control levels (background). FACS binding confirmed that Control I selectively bound to 293/hPRLR expressing cells with MFIs that were 30 fold above background (isotype ctrl) levels and less than 2 fold binding on parental cells.
(§3) Next, the anti-PRLR antibodies of the present invention were tested via FACS for selective binding to the engineered overexpressing PRLR HEK293 cell lines, as well as to non-expressing HEK293 cells and a native PRLR expressing cell line (T47D).

Molecule	FACS Cell Binding (Fold Above Background)
B1	1 Fold Above Background
B2	1 Fold Above Background
B3	1 Fold Above Background

Target: T1, HEK293/hPRLR
Test: FACS cell surface binding
Settings: not given
Experimental: as §1, §2, §3

FACS Cell Binding (Fold Above Background)	Molecule
38 Fold Above Background	B1
8 Fold Above Background	B2
36 Fold Above Background	B3

Test system: HEK293/mfPRLR
Test: FACS cell surface binding
Parameters: species or system macaca fascicularis
Settings: not given
Experimental: as §1, §2, §3

HEK293/mfPRLR, sequence (as listed by the source): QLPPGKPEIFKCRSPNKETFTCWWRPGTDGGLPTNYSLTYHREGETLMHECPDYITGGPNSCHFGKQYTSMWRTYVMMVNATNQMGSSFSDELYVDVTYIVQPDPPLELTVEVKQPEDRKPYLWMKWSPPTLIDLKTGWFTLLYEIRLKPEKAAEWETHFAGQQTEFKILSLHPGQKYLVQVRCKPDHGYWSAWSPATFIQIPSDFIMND

Molecule	FACS Cell Binding (Fold Above Background)
B1	29 Fold Above Background
B2	29 Fold Above Background
B3	26 Fold Above Background

Target: mfPRLR.mmh (monomeric macaca fascicularis PRLR)
Test: Surface plasmon resonance (Biacore T200), mAb-capture format
Assay type: binding
Settings: 25° C., antibody-capture format, analyte mfPRLR.mmh
Experimental: (§4) Antibodies, expressed as human IgG1 Fc “[…]” designations), were captured onto an anti-human Fc sensor surface (mAb-capture format), and soluble monomeric (hPRLR.mmh; SEQ ID NO:401, or macaca fascicularis (mf) PRLR.mmh; SEQ ID NO:403) or dimeric (hPRLR.mFc; SEQ ID NO:402) PRLR protein was injected over the sensor surface. Measurements were conducted on a T200 Biacore instrument. Kinetic association (ka) and dissociation (kd) rate constants were determined by processing and fitting the data to a 1:1 binding model using Scrubber 2.0 curve fitting software.

mfPRLR.mmh (monomeric macaca fascicularis PRLR), sequence (as listed by the source): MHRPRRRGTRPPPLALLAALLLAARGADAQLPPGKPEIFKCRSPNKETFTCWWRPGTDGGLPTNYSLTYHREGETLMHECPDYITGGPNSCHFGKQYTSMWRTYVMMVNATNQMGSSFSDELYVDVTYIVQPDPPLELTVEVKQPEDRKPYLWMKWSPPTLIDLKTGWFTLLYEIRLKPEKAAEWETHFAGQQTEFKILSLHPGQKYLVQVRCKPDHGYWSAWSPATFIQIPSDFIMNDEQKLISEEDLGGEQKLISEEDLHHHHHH

Kd	Molecule	T½
1.14 nM	B1	88.2 min
1.75 nM	B2	14.2 min
0.511 nM	B3	55 min

Same assay, conditions: 37° C., antibody-capture format, analyte mfPRLR.mmh

Kd	Molecule	T½
2.27 nM	B1	36.4 min
5.24 nM	B2	3.7 min
0.823 nM	B3	21 min

Target: T3, hPRLR.mFc (soluble dimeric human PRLR) (Homo sapiens, UniProt P16471)
T3 construct: dimeric (hPRLR.mFc)
Test: as above
Assay type: binding
Settings: 25° C., antibody-capture format, analyte hPRLR.mFc
Experimental: as §4

T3 sequence (P16471 with tags, fused parts or gaps): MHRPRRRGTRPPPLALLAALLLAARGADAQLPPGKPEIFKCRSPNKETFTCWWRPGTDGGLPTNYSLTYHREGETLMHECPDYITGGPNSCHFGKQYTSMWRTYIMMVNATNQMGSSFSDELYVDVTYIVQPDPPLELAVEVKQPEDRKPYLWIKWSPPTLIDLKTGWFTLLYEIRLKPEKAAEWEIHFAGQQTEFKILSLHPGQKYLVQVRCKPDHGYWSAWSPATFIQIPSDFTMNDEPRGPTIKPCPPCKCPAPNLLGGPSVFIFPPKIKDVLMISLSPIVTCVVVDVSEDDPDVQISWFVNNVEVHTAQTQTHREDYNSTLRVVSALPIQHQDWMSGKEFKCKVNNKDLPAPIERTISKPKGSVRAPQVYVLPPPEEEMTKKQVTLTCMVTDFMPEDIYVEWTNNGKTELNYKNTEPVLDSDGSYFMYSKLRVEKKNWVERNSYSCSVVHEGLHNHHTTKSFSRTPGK

Kd	T½	Molecule
0.0684 nM	587.8 min	B1
0.0906 nM	114.4 min	B2
0.0992 nM	179 min	B3

Same assay, conditions: 37° C., antibody-capture format, analyte hPRLR.mFc

Kd	T½	Molecule
0.184 nM	163.0 min	B1
0.102 nM	82.6 min	B2
0.128 nM	112 min	B3

Target: T4, hPRLR.mmh (soluble monomeric human PRLR) (Homo sapiens, UniProt P16471)
T4 construct: soluble monomeric (hPRLR.mmh); mmh (myc-myc-hexahistidine)
Test: as above
Assay type: binding
Settings: 25° C., antibody-capture format, analyte hPRLR.mmh
Experimental: as §4

T4 sequence (P16471 with tags, fused parts or gaps): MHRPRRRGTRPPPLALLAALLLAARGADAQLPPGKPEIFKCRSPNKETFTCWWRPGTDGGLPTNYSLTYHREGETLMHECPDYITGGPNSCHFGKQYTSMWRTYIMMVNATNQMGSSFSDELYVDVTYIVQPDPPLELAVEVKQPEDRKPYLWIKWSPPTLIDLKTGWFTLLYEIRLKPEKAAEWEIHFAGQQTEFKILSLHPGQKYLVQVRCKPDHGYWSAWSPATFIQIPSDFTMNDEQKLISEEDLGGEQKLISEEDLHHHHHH

Kd	T½	Molecule
0.49 nM	157.1 min	B1
1.59 nM	13.4 min	B2
0.259 nM	64 min	B3

Same assay, conditions: 37° C., antibody-capture format, analyte hPRLR.mmh

Kd	T½	Molecule
1.29 nM	42.3 min	B1
4.04 nM	3.7 min	B2
0.48 nM	25 min	B3

Target: T2, PRLR-expressing cells (T47D)
Test: Antibody binding and internalization by PRLR-expressing cells (imaging)
Assay type: cell-based
Settings: [mAb] (0.67 nM), alexa488 intensity in intracellular vesicles, 1 h at 37° C.
Experimental: In this Example, the internalization of anti-PRLR antibodies by PRLR-expressing cells (T47D) was assessed. Briefly, 20,000 T47D cells were seeded in collagen coated 96 well plates. […] Cells were then incubated with alexa488 conjugated anti-hFc Fab secondary antibodies for 30 minutes on ice followed by two additional PBS washes. Antibodies were allowed to internalize for 1 h at 37° C. in internalization buffer (PBS+2% FBS) or remained at 4° C. Cells were fixed in 4% formaldehyde, nuclei were stained with DRAQ5 (Cell signaling), and images were acquired on the ImageXpress micro XL (Molecular Devices). Whole cell alexa488 intensity at 37° C. (Binding) and the alexa488 intensity in the intracellular vesicles at 37° C. (Internalization) were determined via Columbus image analysis software (PerkinElmer).

% Internalization relative to Control I	Molecule
214.2%	B1
169.5%	B2
186.3%	B3

Same assay, conditions: [mAb] (0.67 nM), whole cell alexa488 intensity at 37° C.

% Total Binding relative to Control I	Molecule
225.9%	B1
180.4%	B2
176.7%	B3
